# Results from US20130039923A1 (Novo Nordisk, published 2013).
# Positions count from the first letter of the chain named.
# T1: hIL20 peptide 1 (residues 18-37 of SEQ ID NO: 1) (N-terminal biotin)
# T1 peptide: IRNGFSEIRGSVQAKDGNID
# T2: hIL20 peptide 2 (residues 28-47 of SEQ ID NO: 1) (N-terminal biotin)
# T2 peptide: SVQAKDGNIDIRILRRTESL
# T3: hIL20 peptide 3 (residues 38-57 of SEQ ID NO. 1) (N-terminal biotin)
# T3 peptide: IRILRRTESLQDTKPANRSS
# T4: hIL20 peptide 4 (residues 48-67 of SEQ ID NO. 1) (N-terminal biotin)
# T4 peptide: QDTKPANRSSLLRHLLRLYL
# T5: hIL20 peptide 5 (residues 58-78 of SEQ ID NO: 1) (N-terminal biotin)
# T5 peptide: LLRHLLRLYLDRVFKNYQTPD
# T6: murine IL20 (mouse, UniProt Q9JKV9 25-176)
# T6 sequence: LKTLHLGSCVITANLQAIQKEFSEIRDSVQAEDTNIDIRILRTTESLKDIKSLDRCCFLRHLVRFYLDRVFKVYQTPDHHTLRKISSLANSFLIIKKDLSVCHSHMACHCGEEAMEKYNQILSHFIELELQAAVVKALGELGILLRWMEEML
# T7: recombinant human interleukin-20 (human, UniProt Q9NYY1 25-176)
# T7 sequence: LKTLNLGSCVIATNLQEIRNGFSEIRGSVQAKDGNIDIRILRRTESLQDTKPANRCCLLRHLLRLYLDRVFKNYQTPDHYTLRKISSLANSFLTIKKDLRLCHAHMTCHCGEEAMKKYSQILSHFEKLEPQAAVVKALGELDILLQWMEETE
# T8: cynomolgus IL20 (cynomolgus monkey, UniProt Q9NYY1 25-176 (human entry))
# T8 chain: T7 sequence with N54D, R55Q, P77L, S119G, K127E
# T9: Peptide no. 44 (Figure 8A)
# T9 construct: Ala-scan peptide on the array; also called Peptide no; D78A
# T9 peptide: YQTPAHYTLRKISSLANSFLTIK
# T10: Peptide no. 46 (Figure 8A)
# T10 construct: Ala-scan peptide on the array; also called Peptide no; Y80A
# T10 peptide: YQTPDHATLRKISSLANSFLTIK
# T11: Peptide no. 58 (Figure 8A)
# T11 construct: Ala-scan peptide on the array; also called Peptide no; L93A
# T11 peptide: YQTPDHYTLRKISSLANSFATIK
# T12: Peptide no. 45 (Figure 8A)
# T12 construct: Ala-scan peptide on the array; also called Peptide no; H79A
# T12 peptide: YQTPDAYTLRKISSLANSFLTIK
# T13: Peptide no. 60 (Figure 8A)
# T13 construct: Ala-scan peptide on the array; also called Peptide no; I95A
# T13 peptide: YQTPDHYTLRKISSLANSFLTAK
# T14: Peptide no. 41 (Figure 8A)
# T14 construct: Ala-scan peptide on the array; also called Peptide no; Q75A
# T14 peptide: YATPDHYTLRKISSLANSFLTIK
# T15: Peptide no. 42 (Figure 8A)
# T15 construct: Ala-scan peptide on the array; also called Peptide no; T76A
# T15 peptide: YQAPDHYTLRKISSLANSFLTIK
# T16: Peptide no. 61 (Figure 8A)
# T16 construct: Ala-scan peptide on the array; also called Peptide no; K96A
# T16 peptide: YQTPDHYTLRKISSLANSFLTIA
# T17: Peptide no. 56 (Figure 8A)
# T17 construct: Ala-scan peptide on the array; also called Peptide no; S91A
# T17 peptide: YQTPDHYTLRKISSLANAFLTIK
# T18: Peptide no. 57 (Figure 8A)
# T18 construct: Ala-scan peptide on the array; also called Peptide no; F92A
# T18 peptide: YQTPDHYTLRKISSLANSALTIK
# B1: human anti-hIL20 monoclonal antibody 15D2 (antibody, V domains shown)
# VH: QVQLVQSGAEVKRPGASVKVSCKASGYTFTNDIIHWVRQAPGQRLEWMGWINAGYGNTQYSQNFQDRVSITRDTSASTAYMELISLRSEDTAVYYCAREPLWFGESSPHDYYGMDVWGQGTTVTVSS
# VL: AIQLTQSPSSLSASVGDRVTITCRASQGISSALAWYQQKPGKAPKLLIYDASSLESGVPSRFSGSGSGTDFTLTISSLQPEDFATYYCQQFNSYPLTFGGGTKVEIKR
# notes: also called 15D2-wt; 15D2 wild-type
# B2: human anti-hIL20 monoclonal antibody 5B7 (antibody, human IgG4, V domains shown)
# VH: B1 VH with T30S, N31S, D32H, I34M, Q59K, S69T, S106L
# VL: B1 VL
# notes: described as human IgG4; also called 5B7-wt
# Columns and labels:
# [1] = molecular target: T1, hIL20 peptide 1 (residues 18-37 of SEQ …); experiment: SPR, biotinylated peptide on streptavidin chip (500 RU), antibody injected
# Experimental: (§1) The peptides, containing N-terminal biotin, were immobilized (500 RU) in individual flow cells on streptavidin coated (SA) chips. The individual antibodies (5 μg/ml) were injected across all flow cells for 120 s, followed by a 180 s dissociation phase. Experiments were performed on Biacore3000 and BiacoreT100 instruments. The results were evaluated using Scrubber2 software (BioLogic Software Pty Ltd).
# [2] = molecular target: T2, hIL20 peptide 2 (residues 28-47 of SEQ …); experiment: as above
# Experimental: as §1
# [3] = molecular target: T3, hIL20 peptide 3 (residues 38-57 of SEQ …); experiment: as above
# Experimental: as §1
# [4] = molecular target: T4, hIL20 peptide 4 (residues 48-67 of SEQ …); experiment: as above
# Experimental: as §1
# [5] = molecular target: T5, hIL20 peptide 5 (residues 58-78 of SEQ …); experiment: as above
# Experimental: as §1
# murine IL20 = molecular target: T6, murine IL20; experiment: cell-based or functional assay
# [6] = molecular target: T7, recombinant human interleukin-20; experiment: cell-based or functional assay
# cynomolgus IL20 = molecular target: T8, cynomolgus IL20; experiment: cell-based or functional assay
# [7] = molecular target: T7, recombinant human interleukin-20; experiment: cell-based or functional assay; remark: listed apart in the source
# [8] = molecular target: T7, recombinant human interleukin-20; experiment: SPR (Biacore 3000/T100), antibody amine-coupled on CM5, recombinant hIL20 injected 3.125-100 nM, 1:1 Langmuir, 25 C; antibody from hybridoma
# Experimental: Affinity studies were performed using a direct binding procedure, with the monoclonal antibody covalently coupled via free amine groups to the carboxymethylated dextrane membrane (CM5) on the sensor chip surface. […] The kinetic parameters for the interaction could be calculated using a 1:1 interaction Langmuir fitting model.
# The purified monoclonal antibodies were immobilized in individual flow cells on a CM5 type sensor chip. Immobilizations were performed using a standard amine coupling procedure, aiming for an immobilization level of 1000 Resonance Units (RU). The antibodies were diluted to 5 μg/ml in 10 mM NaAc pH 5.0. […] Association (injection) was 3 min., followed by a 30 min. dissociation (wash) period. Flow rate was 30 μl/min. Experiments were performed at 25° C. Regeneration of the surface following each cycle, was accomplished by injection of 30 sec. pulse of 10 mM Glycin-HCl pH 1.8, at a 30 ul/min flow rate. Detection in all flow cells simultaneously. Flow cell No. 1 contained no immobilized antibody, and was used for subtraction of background and bulk. […] Data was inspected for mass-transport limitations prior to calculation of the kinetic parameters. Experiments were performed on Biacore 3000 and T100 instruments. Data was evaluated using Biaeval 4.1 and Biacore T100 evaluation software.
# [9] = molecular target: T9, Peptide no. 44 (Figure 8A); experiment: Ala-scan peptide array of hIL20 74-96 on cellulose; fluorescein-labelled antibody; fluorescence as OD
# Experimental: (§2) The screenings were done using fluorescence labelled antibodies. The labelling was done by gel-filtering the antibody stock against 1% NaHCO3, using NAP5 column (GE Healthcare according the manual from manufacturer. This was followed by adding 25 mole equivalents of 5(6)-carboxyfluorescein N-hydroxysuccinimide ester (Sigma, C1609) dissolved in DMSO. The coupling was allowed to continue for 2 hours followed by a gelfiltration against TRIS washing buffer (50 mM TRIS, pH=7.4, 0.15M NaCl, 0.1 M ArgHCl, 0.05% Tween 20) in order to removed uncoupled fluorescein.
# (§3) Screening of arrays were done by adding 10 μl of antibody to 30 ml incubation buffer (0.5% BSA, 50 mM TRIS, pH=7.4, 0.15M NaCl, 0.1 M ArgHCl, 0.05% Tween 20). The sheets were incubated for 1-2 hours, followed by washing five times with washing buffer. […] The fluorescence intensity were measured and transformed into digits that were exported to Prism 5 (Graph Pad Software, USA) for further analysis.
# [10] = molecular target: T10, Peptide no. 46 (Figure 8A); experiment: as above
# Experimental: as §2, §3
# [11] = molecular target: T11, Peptide no. 58 (Figure 8A); experiment: as above
# Experimental: as §2, §3
# [12] = molecular target: T12, Peptide no. 45 (Figure 8A); experiment: as above
# Experimental: as §2, §3
# [13] = molecular target: T13, Peptide no. 60 (Figure 8A); experiment: as above
# Experimental: as §2, §3
# [14] = molecular target: T14, Peptide no. 41 (Figure 8A); experiment: as above
# Experimental: as §2, §3
# [15] = molecular target: T15, Peptide no. 42 (Figure 8A); experiment: as above
# Experimental: as §2, §3
# [16] = molecular target: T16, Peptide no. 61 (Figure 8A); experiment: as above
# Experimental: as §2, §3
# [17] = molecular target: T17, Peptide no. 56 (Figure 8A); experiment: as above
# Experimental: as §2, §3
# [18] = molecular target: T18, Peptide no. 57 (Figure 8A); experiment: as above
# Experimental: as §2, §3
binder,measurement,setting,value
B1,binding result,[1],no binding (tested: 5 µg/ml)
same,binding result,[2],no binding (tested: 5 µg/ml)
same,binding result,[3],no binding (tested: 5 µg/ml)
same,binding result,[4],no binding (tested: 5 µg/ml)
same,binding result,[5],no binding (tested: 5 µg/ml)
same,efficacy (percentage inhibition) of IL20-induced proliferation of BaF-3(hIL20R),murine IL20,~100%
same,efficacy (percentage inhibition) of IL20-induced proliferation of BaF-3(hIL20R),[6],~100%
same,efficacy (percentage inhibition) of IL20-induced proliferation of BaF-3(hIL20R),cynomolgus IL20,~100%
same,"IC50, inhibition of IL20 induced proliferation of BaF-3(hIL20R) at 1e-9M hIL20 (assay 1)",[7],180 nM
same,"IC50, inhibition of IL20 induced proliferation of BaF-3(hIL20R) at 1e-9M hIL20 (assay 2)",[7],420 nM
same,"IC50, inhibition of IL20 induced proliferation of BaF-3(hIL20R) at 1e-9M hIL20 (assay 3)",[7],340 nM
same,"IC50, inhibition of IL20 induced proliferation of BaF-3(hIL20R) at 1e-9M hIL20 (assay 6)",[7],120 nM
same,"IC50, inhibition of IL20 induced proliferation of BaF-3(hIL20R) at 1e-9M hIL20 (assay 7)",[7],436 nM
same,Kd,[8],0.55 nM
same,koff,[8],0.00011 s⁻¹
same,kon,[8],190000 M⁻¹ s⁻¹
B2,binding result,[9],binds
same,binding result,[10],binds
same,binding result,[11],binds
same,binding result,[12],binds
same,binding result,[13],binds
same,binding result,[14],binds
same,binding result,[15],binds
same,binding result,[16],binds
same,binding result,[17],binds
same,binding result,[18],binds
same,"IC50, inhibition of IL20 induced proliferation of BaF-3(hIL20R) at 1e-9M hIL20 (assay 1)",[7],260 nM
same,"IC50, inhibition of IL20 induced proliferation of BaF-3(hIL20R) at 1e-9M hIL20 (assay 2)",[7],4540 nM
same,"IC50, inhibition of IL20 induced proliferation of BaF-3(hIL20R) at 1e-9M hIL20 (assay 3)",[7],760 nM
same,"IC50, inhibition of IL20 induced proliferation of BaF-3(hIL20R) at 1e-9M hIL20 (assay 6)",[7],200 nM
same,Kd,[8],0.75 nM
same,koff,[8],0.0001 s⁻¹
same,kon,[8],140000 M⁻¹ s⁻¹
